This data set deals with the molecule itself. As to the kind of experiment: SEC; Superdex 200 column; purified F1. In general terms: Size exclusion chromatography separates by hydrodynamic size, large species first.

B1: polymeric F1 protein (F1 capsular antigen of Yersinia pestis) (natural protein)
chain: ADLTASTTATATLVEPARITLTYKEGAPITIMDNGNIDTELLVGTLTLGGYKTGTTSTSVNFTDAAGDPMYLTFTSQDGNNHQFTTKVIGKDSRDFDISPKVNGENLVGDDVVLATGSQDFFVRSIGSKGGKLAAGKYTDAVTVTVSNQ
notes: also called PolyF1; polyF1
As for B1, the binding result is on record as “binds”.

The record behind these values is article PMC10054699 (Vaccines, 2023).
